Assay results as given in US20170160291.

Target: immature human CFD (proCFD)

B1: recombinant protease MASP1 (protein)
chain: HTVELNNMFGQIQSPGYPDSYPSDSEVTWNITVPDGFRIKLYFMHFNLESSYLCEYDYVKVETEDQVLATFCGRETTDTEQTPGQEVVLSPGSFMSITFRSDFSNEERFTGFDAHYMAVDVDECKEREDEELSCDHYCHNYIGGYYCSCRFGYILHTDNRTCRVECSDNLFTQRTGVITSPDFPNPYPKSSECLYTIELEEGFMVNLQFEDIFDIEDHPEVPCPYDYIKIKVGPKVLGPFCGEKAPEPISTQSHSVLILFHSDNSGENRGWRLSYRAAGNECPELQPPVHGKIEPSQAKYFFKDQVLVSCDTGYKVLKDNVEMDTFQIECLKDGTWSNKIPTCKIVDCRAPGELEHGLITFSTRNNLTTYKSEIKYSCQEPYYKMLNNNTGIYTCSAQGVWMNKVLGRSLPTCLPVCGLPKFSRKLMARIFNGRPAQKGTTPWIAMLSHLNGQPFCGGSLLGSSWIVTAAHCLHQSLDPEDPTLRDSDLLSPSDFKIILGKHWRLRSDENEQHLGVKHTTLHPQYDPNTFENDVALVELLESPVLNAFVMPICLPEGPQQEGAMVIVSGWGKQFLQRFPETLMEIEIPIVDHSTCQKAYAPLKKKVTRDMICAGEKEGGKDACAGDSGGPMVTLNRERGQWYLVGTVSWGDDCGKKDRYGVYSYIHHNKDWIQRVTGVRN
processing of proCFD (IEF immunoblot after overnight incubation at 37 C): ProCFD treated with MASP1 was not strongly processed (lane 1)

B2: recombinant protease C1S (protein)
chain: EPTMYGEILSPNYPQAYPSEVEKSWDIEVPEGYGIHLYFTHLDIELSENCAYDSVQIISGDTEEGRLCGQRSSNNPHSPIVEEFQVPYNKLQVIFKSDFSNEERFTGFAAYYVATDINECTDFVDVPCSHFCNNFIGGYFCSCPPEYFLHDDMKNCGVNCSGDVFTALIGEIASPNYPKPYPENSRCEYQIRLEKGFQVVVTLRREDFDVEAADSAGNCLDSLVFVAGDRQFGPYCGHGFPGPLNIETKSNALDIIFQTDLTGQKKGWKLRYHGDPMPCPKEDTPNSVWEPAKAKYVFRDVVQITCLDGFEVVEGRVGATSFYSTCQSNGKWSNSKLKCQPVDCGIPESIENGKVEDPESTLFGSVIRYTCEEPYYYMENGGGGEYHCAGNGSWVNEVLGPELPKCVPVCGVPREPFEEKQRIIGGSDADIKNFPWQVFFDNPWAGGALINEYWVLTAAHVVEGNREPTMYVGSTSVQTSRLAKSKMLTPEHVFIHPGWKLLEVPEGRTNFDNDIALVRLKDPVKMGPTVSPICLPGTSSDYNLMDGDLGLISGWGRTEKRDRAVRLKAARLPVAPLRKCKEVKVEKPTADAEAYVFTPNMICAGGEKGMDSCKGDSGGAFAVQDPNDKTKFYAAGLVSWGPQCGTYGLYTRVKNYVDWIMKTMQENSTPRED
processing of proCFD (IEF immunoblot after overnight incubation at 37 C): the convertase C1S hardly shows effects (lane 4, like MASP1)

B3: recombinant protease C1R (protein)
chain: SIPIPQKLFGEVTSPLFPKPYPNNFETTTVITVPTGYRVKLVFQQFDLEPSEGCFYDYVKISADKKSLGRFCGQLGSPLGNPPGKKEFMSQGNKMLLTFHTDFSNEENGTIMFYKGFLAYYQAVDLDECASRSKSGEEDPQPQCQHLCHNYVGGYFCSCRPGYELQEDTHSCQAECSSELYTEASGYISSLEYPRSYPPDLRCNYSIRVERGLTLHLKFLEPFDIDDHQQVHCPYDQLQIYANGKNIGEFCGKQRPPDLDTSSNAVDLLFFTDESGDSRGWKLRYTTEIIKCPQPKTLDEFTIIQNLQPQYQFRDYFIATCKQGYQLIEGNQVLHSFTAVCQDDGTWHRAMPRCKIKDCGQPRNLPNGDFRYTTTMGVNTYKARIQYYCHEPYYKMQTRAGSRESEQGVYTCTAQGIWKNEQKGEKIPRCLPVCGKPVNPVEQRQRIIGGQKAKMGNFPWQVFTNIHGRGGGALLGDRWILTAAHTLYPKEHEAQSNASLDVFLGHTNVEELMKLGNHPIRRVSVHPDYRQDESYNFEGDIALLELENSVTLGPNLLPICLPDNDTFYDLGLMGYVSGFGVMEEKIAHDLRFVRLPVANPQACENWLRGKNRMDVFSQNMFCAGHPSLKQDACQGDSGGVFAVRDPNTDRWVATGIVSWGIGCSRGYGFYTKVLNYVDWIKKEMEEED
processing of proCFD (IEF immunoblot after overnight incubation at 37 C): The treatment with C1R resulted in a partial processing/activation (lane 3)

B4: recombinant protease MASP3 (protein)
chain: HTVELNNMFGQIQSPGYPDSYPSDSEVTWNITVPDGFRIKLYFMHFNLESSYLCEYDYVKVETEDQVLATFCGRETTDTEQTPGQEVVLSPGSFMSITFRSDFSNEERFTGFDAHYMAVDVDECKEREDEELSCDHYCHNYIGGYYCSCRFGYILHTDNRTCRVECSDNLFTQRTGVITSPDFPNPYPKSSECLYTIELEEGFMVNLQFEDIFDIEDHPEVPCPYDYIKIKVGPKVLGPFCGEKAPEPISTQSHSVLILFHSDNSGENRGWRLSYRAAGNECPELQPPVHGKIEPSQAKYFFKDQVLVSCDTGYKVLKDNVEMDTFQIECLKDGTWSNKIPTCKIVDCRAPGELEHGLITFSTRNNLTTYKSEIKYSCQEPYYKMLNNNTGIYTCSAQGVWMNKVLGRSLPTCLPECGQPSRSLPSLVKRIIGGRNAEPGLFPWQALIVVEDTSRVPNDKWFGSGALLSASWILTAAHVLRSQRRDTTVIPVSKEHVTVYLGLHDVRDKSGAVNSSAARVVLHPDFNIQNYNHDIALVQLQEPVPLGPHVMPVCLPRLEPEGPAPHMLGLVAGWGISNPNVTVDEIISSGTRTLSDVLQYVKLPVVPHAECKTSYESRSGNYSVTENMFCAGYYEGGKDTCLGDSGGAFVIFDDLSQRWVVQGLVSWGGPEECGSKQVYGVYTKVSNYVDWVWEQMGLPQSVVEPQVER
degree of processing of the proCFD N terminus (targeted mass spectrometry, convertase activity test): Only the proteases from the MASP family, i.e. L. MASP3 show a successful activation of proCFD
processing of proCFD (IEF immunoblot after overnight incubation at 37 C): proCFD treated with MASP3 was almost completely converted into active CFD and even shows further processed forms (lane 2)
